Measurements reported in the supplement of paper PMC7877785.
± gives the uncertainty stated by the source.

Assay: self-splicing fitness, log relative to wild type (ln ratio); higher = more splicing; Tetrahymena group I intron in knt gene, E. coli kanamycin selection, DiMSum; sequences stand for … in CUCUCU…GGAGGGAAAAGUUAUCAGGCAUGCACCUGGUAGCUAGUCUUUAAACCAAUAGAUUGCAUCGGUUUAAAAGGCAAGACCGUCAAAUUGCGGGAAAGGGGUCAACAGCCGUUCAGUACCAAGUCUCAGGGGAAACUUUGAGAUGGCCUUGCAAAGGGUAUGGUAAUAAGCUGACGGACAUGGUCCUAACCACGCAGCCAAGUCCUAAGUCAACAGAUCUUCUGUUGAUAUGGAUGCAGUUCACAGACUAAAUGUCGGUCGGGGAAGAUGUAUUCUUCUCAUAAGAUAUAGUCGGACCUCUCCUUAAUGGGAGCUAGCGGAUGAAGUGAUGCAACACUGGAGCCGCUGGGAACUAAUUUGUAUGCGAAAGUAUAUUGAUUAGUUUUGGAGUACUCGUGGUCG
How it was run: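 The eight P1ex-region nucleotides of an intron in the knt kanamycin-resistance gene on pET-22b(+) were all randomised and the library put into E. coli BL21(DE3). Six replicate transformations were grown overnight at 37°C or 30°C on LB agar with or without 25 μg/mL kanamycin, together with 100 μg/mL carbenicillin, 50 μM IPTG and 0.2% rhamnose. Colonies were pooled and amplicon-sequenced on an Illumina HiSeq 2500. Fitness from DiMSum is the error-weighted combination of wild-type-normalised replicate fold changes, kanamycin over none.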

Sequence | self-splicing fitness (ln) (30 °C) | self-splicing fitness (ln) (37 °C)
GUGUAGCAAUAUUACGGCGG | -2.81 ± 0.23 | -1.6 ± 0.19
GUGUAGCAAUAUUACGGGUC | -2.47 ± 0.2 | -2.49 ± 0.28
GUGUAGCAAUAUUACGGGUU | -2.77 ± 0.21 | -1.22 ± 0.17
GUGUAGCAAUAUUACGGUAG |  | -1.58 ± 0.23
GUGUAGCAAUAUUACGGUUA | -0.588 ± 0.14 | -0.936 ± 0.17
GUGUAGCAAUAUUACGGUUG | -2.88 ± 0.14 | -2.61 ± 0.16
GUGUAGCAAUAUUACGUAUU | -1.25 ± 0.12 | -2.82 ± 0.22
GUGUAGCAAUAUUACGUGAU | -1.59 ± 0.17 | 0.0886 ± 0.19
GUGUAGCAAUAUUACGUUUG | -2.54 ± 0.27 | -1.44 ± 0.28
GUUAAGCAAUAUUACGAAAG | -1.91 ± 0.14 | -1.5 ± 0.22
GUUAAGCAAUAUUACGAACG | -2.01 ± 0.28 | -1.16 ± 0.31
GUUAAGCAAUAUUACGAACU | -2.35 ± 0.2 | -0.527 ± 0.2
GUUAAGCAAUAUUACGAAUU | -1.72 ± 0.21 | -1.4 ± 0.24
GUUAAGCAAUAUUACGAGUU | -1.36 ± 0.11 | -0.688 ± 0.14
GUUAAGCAAUAUUACGAUAC | -1.34 ± 0.21 | -0.951 ± 0.28
GUUAAGCAAUAUUACGAUGA | -1.33 ± 0.17 | 0.18 ± 0.11
GUUAAGCAAUAUUACGAUGC | -0.546 ± 0.18 | -0.241 ± 0.18
GUUAAGCAAUAUUACGCGCG | -0.983 ± 0.09 | 0.0623 ± 0.14
GUUAAGCAAUAUUACGCUCG | -0.539 ± 0.13 | 0.0474 ± 0.16
GUUAAGCAAUAUUACGGCGU | -0.0268 ± 0.076 | -0.00868 ± 0.094
GUUAAGCAAUAUUACGGGGA | -3.04 ± 0.37 | -2.15 ± 0.47
GUUAAGCAAUAUUACGUCCG | -1.77 ± 0.17 | -0.533 ± 0.23
GUUAAGCAAUAUUACGUUUU | -3.11 ± 0.15 | -1.7 ± 0.16
GUUCAGCAAUAUUACGAACA | -2.43 ± 0.26 | -1.45 ± 0.22
GUUCAGCAAUAUUACGAAGC | -0.705 ± 0.18 | -1.29 ± 0.2

Sequence | self-splicing fitness (ln) (30 °C) | self-splicing fitness (ln) (37 °C)
GUUCAGCAAUAUUACGAAUC | -3.73 ± 0.24 | -2.29 ± 0.33
GUUCAGCAAUAUUACGACAA | -1.06 ± 0.18 | -0.319 ± 0.18
GUUCAGCAAUAUUACGACAG | -3.33 ± 0.35 | -1.76 ± 0.42
GUUCAGCAAUAUUACGACCG | -3.83 ± 0.18 | -1.93 ± 0.23
GUUCAGCAAUAUUACGACGG | -4.42 ± 0.24 | -3.24 ± 0.37
GUUCAGCAAUAUUACGAGAA | -1.81 ± 0.49 | -2.14 ± 0.31
GUUCAGCAAUAUUACGAGGU | -2.25 ± 0.12 | -0.472 ± 0.13
GUUCAGCAAUAUUACGAGUG | -1.59 ± 0.18 | -0.332 ± 0.14
GUUCAGCAAUAUUACGAUAU | -0.361 ± 0.086 | 0.524 ± 0.097
GUUCAGCAAUAUUACGCAAU | -1.08 ± 0.16 | -0.106 ± 0.19
GUUCAGCAAUAUUACGCACC | -1.33 ± 0.13 | -0.136 ± 0.21
GUUCAGCAAUAUUACGCUCC | -0.282 ± 0.15 | -0.544 ± 0.23
GUUCAGCAAUAUUACGCUUG | -1.54 ± 0.081 | -0.171 ± 0.089
GUUCAGCAAUAUUACGGAAU | -2.45 ± 0.19 | -2.46 ± 0.27
GUUCAGCAAUAUUACGGACA | -1.59 ± 0.18 | -1.02 ± 0.16
GUUCAGCAAUAUUACGGCUU | -0.546 ± 0.086 | 0.571 ± 0.12
GUUCAGCAAUAUUACGGGAG | -0.317 ± 0.077 | -0.683 ± 0.095
GUUCAGCAAUAUUACGGGCU |  | -1.56 ± 0.28
GUUCAGCAAUAUUACGGGGU | -3.36 ± 0.17 | -1.73 ± 0.16
GUUCAGCAAUAUUACGGGUA | -2.23 ± 0.12 | -0.474 ± 0.097
GUUCAGCAAUAUUACGGGUG | -1.49 ± 0.09 | -0.763 ± 0.089
GUUCAGCAAUAUUACGGUCU | -0.136 ± 0.047 | 0.327 ± 0.063
GUUCAGCAAUAUUACGUAGA | -0.546 ± 0.1 | -0.394 ± 0.1
GUUCAGCAAUAUUACGUUAU | -0.292 ± 0.077 | -0.207 ± 0.099
GUUCAGCAAUAUUACGUUCG | -0.684 ± 0.067 | 0.137 ± 0.1

Sequence | self-splicing fitness (ln) (30 °C) | self-splicing fitness (ln) (37 °C)
GUUGAGCAAUAUUACGAAGG | -3.35 ± 0.41 | -2.68 ± 0.4
GUUGAGCAAUAUUACGAGGA | -2.48 ± 0.45 | 
GUUGAGCAAUAUUACGAUGA |  | -2.27 ± 0.42
GUUGAGCAAUAUUACGCACG | -3.13 ± 0.43 | 
GUUGAGCAAUAUUACGCCGU | -2.98 ± 0.23 | -0.768 ± 0.16
GUUGAGCAAUAUUACGCGAA | -3.43 ± 0.46 | -1.9 ± 0.43
GUUGAGCAAUAUUACGCGUC | -1.59 ± 0.27 | -0.951 ± 0.34
GUUGAGCAAUAUUACGCUAC | -1.28 ± 0.49 | 
GUUGAGCAAUAUUACGCUAU | -2.06 ± 0.35 | -2.66 ± 0.46
GUUGAGCAAUAUUACGCUUG | -2.79 ± 0.22 | -2.15 ± 0.27
GUUGAGCAAUAUUACGGCCU | -2.03 ± 0.18 | -0.897 ± 0.2
GUUGAGCAAUAUUACGGGCG | -2.38 ± 0.18 | -1.58 ± 0.25
GUUGAGCAAUAUUACGGUAA | -2.51 ± 0.27 | -2.49 ± 0.35
GUUGAGCAAUAUUACGGUAC | -3.45 ± 0.34 | -1.79 ± 0.38
GUUGAGCAAUAUUACGUACC | -1.75 ± 0.36 | 
GUUGAGCAAUAUUACGUCGC | -2.1 ± 0.35 | -1.17 ± 0.29
GUUGAGCAAUAUUACGUGGC | -3.09 ± 0.25 | -2.17 ± 0.28
GUUUAGCAAUAUUACGAGUG | -3.74 ± 0.17 | -0.634 ± 0.11
GUUUAGCAAUAUUACGAGUU | -4.25 ± 0.29 | -2.3 ± 0.14
GUUUAGCAAUAUUACGAUGU | -1.16 ± 0.11 | -0.261 ± 0.14
GUUUAGCAAUAUUACGAUUU | -0.709 ± 0.068 | 0.111 ± 0.096
GUUUAGCAAUAUUACGCAUU | -1.53 ± 0.11 | -0.487 ± 0.12
GUUUAGCAAUAUUACGCCGU | -2.03 ± 0.13 | -0.93 ± 0.14
GUUUAGCAAUAUUACGCUGA | -3.66 ± 0.33 | -1.6 ± 0.23
GUUUAGCAAUAUUACGCUUC |  | -1.36 ± 0.43

Sequence | self-splicing fitness (ln) (30 °C) | self-splicing fitness (ln) (37 °C)
GUUUAGCAAUAUUACGCUUG | -1.18 ± 0.099 | 0.632 ± 0.15
GUUUAGCAAUAUUACGGAGU | -2.3 ± 0.13 | -1.63 ± 0.12
GUUUAGCAAUAUUACGGCGA | -0.198 ± 0.23 | -0.0729 ± 0.19
GUUUAGCAAUAUUACGUCAA | -2.3 ± 0.18 | -0.778 ± 0.16
GUUUAGCAAUAUUACGUCAU | -0.998 ± 0.069 | -0.817 ± 0.099
GUUUAGCAAUAUUACGUCCG | -2.86 ± 0.2 | -1.89 ± 0.29
GUUUAGCAAUAUUACGUCGA | -1.43 ± 0.28 | -0.62 ± 0.28
GUUUAGCAAUAUUACGUCUC | -0.593 ± 0.19 | 0.43 ± 0.24
GUUUAGCAAUAUUACGUGGC | -0.884 ± 0.32 | -1.46 ± 0.33
GUUUAGCAAUAUUACGUGUG | -2.08 ± 0.11 | -1.36 ± 0.11
UAAAAGCAAUAUUACGAAAU | -3.04 ± 0.16 | -2.45 ± 0.21
UAAAAGCAAUAUUACGAACU | -0.332 ± 0.23 | -0.647 ± 0.2
UAAAAGCAAUAUUACGACAU | -1.09 ± 0.012 | -0.402 ± 0.032
UAAAAGCAAUAUUACGACCA | -0.143 ± 0.092 | 0.711 ± 0.13
UAAAAGCAAUAUUACGAGAC | -2.39 ± 0.28 | -2.29 ± 0.26
UAAAAGCAAUAUUACGAGGU | -4.31 ± 0.3 | -1.59 ± 0.17
UAAAAGCAAUAUUACGAUAG | -0.934 ± 0.078 | -0.765 ± 0.088
UAAAAGCAAUAUUACGAUUA | 0.154 ± 0.073 | 0.0591 ± 0.088
UAAAAGCAAUAUUACGCAGU | -2.66 ± 0.16 | -1.3 ± 0.13
UAAAAGCAAUAUUACGCGAC | -3.73 ± 0.33 | -2.64 ± 0.24
UAAAAGCAAUAUUACGCGCA | -0.512 ± 0.084 | 0.752 ± 0.13
UAAAAGCAAUAUUACGCGGA | -1.8 ± 0.08 | -0.32 ± 0.082
